Laboratory results from patent US20260263614A1, “ANTIBODY DRUG CONJUGATES THAT BIND CDCP1 AND USES THEREOF” (Pheon Therapeutics Ltd, priority 2022, published 2026).

Tests used:
[1] = Comparative repeat-dose rat toxicity study; assay type: in vivo; conditions: DAR 8 on a Trastuzumab backbone, 20 or 60 mg/kg
[2] = Control incubation in buffer without S9; conditions: 5 μM ADC, pH 5.0
Method: Samples were analysed using LC/QE-orbitrap-MS.
The control incubations include each ADC without the addition of S9.

[3] = biological target: T1, Papain (a Cathepsin B surrogate) (Carica papaya, UniProt P00784); conditions: reaction with papain, 24 hours and 96 hours
T1 sequence (P00784 134-345): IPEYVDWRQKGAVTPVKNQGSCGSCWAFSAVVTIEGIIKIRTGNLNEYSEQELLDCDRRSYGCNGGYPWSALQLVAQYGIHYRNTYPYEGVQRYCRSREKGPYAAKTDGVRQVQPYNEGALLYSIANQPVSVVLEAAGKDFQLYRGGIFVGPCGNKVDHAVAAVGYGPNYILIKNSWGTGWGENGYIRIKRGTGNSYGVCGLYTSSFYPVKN

SMILES: CC[C@@]1(O)C(=O)OCc2c1cc1n(c2=O)Cc2c-1nc1cc(F)c(C)c3c1c2[C@@H](NC(=O)[C@H](C)NC(=O)[C@@H](NC(=O)CCOCCOCCOCCOCCOCCOCCOCCOCCNC(=O)CCN1C(=O)C=CC1=O)C(C)C)CC3 [Compound 30]
- changes in hemopoietic system (red cell parameters) [1]: negligible effects
- tolerability ([1]; IV once every 3 weeks, two doses): well tolerated
- LC/MS peak area of released payload (Exatecan; 4NH2-Exatecan; DXd; DM1, per ADC) ([2]; Buffer without S9, 180 min): 26,179
- LC/MS peak area of released payload (Exatecan; 4NH2-Exatecan; DXd; DM1, per ADC) ([2]; Buffer without S9, 360 min): 51,267
- LC/MS peak area of released payload (Exatecan; 4NH2-Exatecan; DXd; DM1, per ADC) ([2]; Buffer without S9, 1440 min): 59,452
- rate of cleavage [3]: slower rate compared to other TOPO1 inhibitors having Cathepsin B cleavage mechanisms
